Measurements as given in patent US7029700B2, “Micronized freeze-dried particles” (Brown University Research Foundation, priority 2000, dated 2006).

Key:
[1] = hGH aggregation during FLM, SEC-HPLC; format: physicochemical
Source text: This frozen emulsion was then lyophilized for 48 hrs to remove both the aqueous and organic solvent.

[2] = Oral GH delivery, serum hGH by ELISA; format: in vivo; details: rats, single oral dose by gavage in corn oil
Method: CD male rats (250 to 300 g) were obtained from Charles River Laboratories. Group 1 was fed 1.24 mg of stock GH emulsified in 1 ml of USP corn oil; Group 2 was fed 50 mg of PIN microspheres (2B43099-2.47% Zn-GH in PLGA) in 1 ml of corn oil; Group 3 was fed 50 mg of PIN microspheres (2B51799 - 2.47% Stock GH, 16% FeO in PLGA) in 1 ml of corn oil. Microspheres were suspended in corn oil by vortexing followed by brief (5 s) probe sonication. Stock GH was similarly emulsified in corn oil by vortexing and probe sonication. Animals were fasted overnight, briefly anesthetized with methoxyfluorane, and formulations fed via gavage with an 18-G stainless steel feeding tube and serum from all animals obtained according to the following schedule: −1 hr (pre-feeding control), 0.5 hr, 1 hr, 2 hr, 3 hr, 4 hr, 6 hr, 24 hr, 48 hr, and 72 hr post-feeding. Serum samples obtained via tail bleeding were analyzed for hGH using the hGH specific ELISA (DSL Inc, Webster. Tex.) according to manufacturer's protocols.

Q: For “hGH: Stock human growth hormone (20 mg/ml) incorporated into PLGA 50:50 by FLM under varied conditions”, which “aggregation of best formulation combination” value ([1]; ethyl acetate, stock GH containing 0.2% F127, agitation time 15 s) is on record?
A: 0.7%

Q: And the “Percent Aggregation (SEC-HPLC)” value ([1]; ethyl acetate, 15 s vortex, 0.05% F127 + T20, 24 hr)?
A: 1.9%

Q: And the “Percent Aggregation (SEC-HPLC)” value ([1]; ethyl acetate, 15 s vortex, 0.2% F127 + T20, 1 hr)?
A: 1.0/1.0%

Q: What about the “Percent Aggregation (SEC-HPLC)” value ([1]; ethyl acetate, 15 s vortex, 0.2% F127 + T20, 24 hr) of the same substance?
A: 1.0/1.0%

Q: What about the “Percent Aggregation (SEC-HPLC)” value ([1]; ethyl acetate, 15 s vortex, 0.2% F127, 1 hr) of the same substance?
A: 0.7/0.7%

Q: What about the “Percent Aggregation (SEC-HPLC)” value ([1]; ethyl acetate, 15 s vortex, 0.2% F127, 24 hr) of the same substance?
A: 0.7/0.7%

Q: What about the “Percent Aggregation (SEC-HPLC)” value ([1]; ethyl acetate, 60 s vortex, 0.05% F127 + T20, 1 hr) of the same substance?
A: 0.9%

Q: What about the “Percent Aggregation (SEC-HPLC)” value ([1]; ethyl acetate, 60 s vortex, 0.05% F127 + T20, 24 hr) of the same substance?
A: 1.0%

Q: What about the “Percent Aggregation (SEC-HPLC)” value ([1]; ethyl acetate, 60 s vortex, 0.05% F127, 24 hr) of the same substance?
A: 2.0%

Q: And the “Percent Aggregation (SEC-HPLC)” value ([1]; ethyl acetate, 60 s vortex, 0.2% F127 + T20, 1 hr)?
A: 1.1/1.1%

Q: And the “Percent Aggregation (SEC-HPLC)” value ([1]; ethyl acetate, 60 s vortex, 0.2% F127 + T20, 24 hr)?
A: 1.1/1.1%

Q: What about the “Percent Aggregation (SEC-HPLC)” value ([1]; ethyl acetate, 60 s vortex, 0.2% F127, 1 hr) of the same substance?
A: 1.5%

Q: And the “Percent Aggregation (SEC-HPLC)” value ([1]; ethyl acetate, 60 s vortex, 0.2% F127, 24 hr)?
A: 1.7%

Q: And the “Percent Aggregation (SEC-HPLC)” value ([1]; methylene chloride, 15 s vortex, 0.05% F127 + T20, 1 hr)?
A: 2.2%

Q: What about the “Percent Aggregation (SEC-HPLC)” value ([1]; methylene chloride, 15 s vortex, 0.05% F127 + T20, 24 hr) of the same substance?
A: 2.7%

Q: And the “Percent Aggregation (SEC-HPLC)” value ([1]; methylene chloride, 15 s vortex, 0.05% F127, 1 hr)?
A: 2.0%

Q: What about the “Percent Aggregation (SEC-HPLC)” value ([1]; methylene chloride, 15 s vortex, 0.05% F127, 24 hr) of the same substance?
A: 4.5%

Q: What about the “Percent Aggregation (SEC-HPLC)” value ([1]; methylene chloride, 15 s vortex, 0.2% F127 + T20, 1 hr) of the same substance?
A: 3.7%

Q: And the “Percent Aggregation (SEC-HPLC)” value ([1]; methylene chloride, 15 s vortex, 0.2% F127 + T20, 24 hr)?
A: 8.8%

Q: And the “Percent Aggregation (SEC-HPLC)” value ([1]; methylene chloride, 15 s vortex, 0.2% F127, 1 hr)?
A: 2.4%

Q: What about the “Percent Aggregation (SEC-HPLC)” value ([1]; methylene chloride, 15 s vortex, 0.2% F127, 24 hr) of the same substance?
A: 5.0%

Q: What about the “Percent Aggregation (SEC-HPLC)” value ([1]; methylene chloride, 60 s vortex, 0.05% F127 + T20, 1 hr) of the same substance?
A: 4.4%

Q: And the “Percent Aggregation (SEC-HPLC)” value ([1]; methylene chloride, 60 s vortex, 0.05% F127 + T20, 24 hr)?
A: 11.4%

Q: What about the “Percent Aggregation (SEC-HPLC)” value ([1]; methylene chloride, 60 s vortex, 0.05% F127, 24 hr) of the same substance?
A: 4.8%

Q: And the “Percent Aggregation (SEC-HPLC)” value ([1]; methylene chloride, 60 s vortex, 0.2% F127 + T20, 1 hr)?
A: 10.2%

Q: And the “Percent Aggregation (SEC-HPLC)” value ([1]; methylene chloride, 60 s vortex, 0.2% F127 + T20, 24 hr)?
A: 12.9%

Q: And the “Percent Aggregation (SEC-HPLC)” value ([1]; methylene chloride, 60 s vortex, 0.2% F127, 1 hr)?
A: 4.2%

Q: And the “Percent Aggregation (SEC-HPLC)” value ([1]; methylene chloride, 60 s vortex, 0.2% F127, 24 hr)?
A: 7.0%

Q: Which “serum hGH Cmax” value [2] does the source give for “stock GH: 1.24 mg of stock GH emulsified in 1 ml of USP corn oil” here?
A: 3.37 ± 2.14 ng/mL
